In patent US20170128554A1 (NEW ENGLAND BIOLABS, published 2017):
Residue numbers refer to the chain shown, from its start. Names and notes keep the numbering of the source.

B1: SNAP-Fbs (wild type Fbs sugar binding domain fused to SNAP-tag) (other)
chain: MGSSHHHHHHGDKDCEMKRTTLDSPLGKLELSGCEQGLHEIKLLGKGTSAADAVEVPAPAAVLGGPEPLMQATAWLNAYFHQPEAIEEFPVPALHHPVFQQESFTRQVLWKLLKVVKFGEVISYQQLAALAGNPAATAAVKTALSGNPVPILIPCHRVVSSSGAVGGYEGGLAVKEWLLAHEGHRLGKPGLGPAAIGAPGSGSGSPAGCQQEGLVPEGGVEEERDHWQQFYFLSKRRRNLLRNPCGEEDLEGWCDVEHGGDGWRVEELPGDSGVEFTHDESVKKYFASSFEWCRKAQVIDLQAEGYWEELLDTTQPAIVVKDWYSGRSDAGCLYELTVKLLSEHENVLAEFSSGQVAVPQDSDGGGWMEISHTFTDYGPGVRFVRFEHGGQDSVYWKGWFGARVTNSSVWVEP
notes: also called SNAP-wtFbs; wtFbs
B2: SNAP-tagged Fbs GYR mutant conjugated to BG beads (other)
chain: B1 chain with S272G, F290Y, E291R
notes: also called S155G+YR
B3: SNAP-tagged Fbs PPRYR mutant conjugated to BG beads (other)
chain: B1 chain with D271P, S272P, G273R, F290Y, E291R

Assays:
[1] = biological target: Sialylglycopeptide (SGP, Fushimi Pharmaceutical Co.); experiment: isothermal titration calorimetry, […] (2 M NaCl), […]
[2] = biological target: Sialylglycopeptide (SGP, Fushimi Pharmaceutical Co.); experiment: isothermal titration calorimetry, […] (50 mM NaCl), […]
[3] = biological target: T1, SGP-TMR (sialylglycopeptide labeled with two tetramethylrhodamine fluorophores); experiment: SGP-TMR pull-down on Fbs beads, low salt volatile buffer, fluorescence
T1 construct: also called sialylated SGP
Procedure: SNAP-Fbs is efficiently conjugated to BG beads (SNAP Capture Pull-Down resin (New England Biolabs, Ipswich, Mass.): SNAP-Fbs protein is reacted with BG beads at 4° C. overnight in a DTT-containing buffer (4 mM DTT, 20 mM tris-HCl pH 7.5, 1 mM EDTA, 50 mM NaCl). After the conjugation reaction, SNAP-Fbs beads are washed with 40× bead volume of low salt buffer.
Fbs binding to complex N-glycan linked glycomolecules is substantially unbiased in a high salt buffer. SGP was labeled with two tetramethylrhodamine (TMR) fluorophores on the peptide portion via lysine residues according to the TMR protein labeling kit protocol (Genaxxon Bioscience, Ulm Germany). After TMR labeling, a fraction of the SGP-TMR sample was processed with neuraminidase (New England Biolabs, Ipswich, Mass.) to remove terminal sialic acid residues. Two binding conditions (LS, low salt buffer and HS, high salt buffer) were tested. […] TMR Fluorescence in the supernatant was measured using a SpectraMax M5 fluorometer (excitation 555 nm and emission 595 nm with 590 nm cutoff). Binding of SGP-TMR to Fbs (y-axis) is determined by subtracting the fluorescence measured in the bead supernatant from the input fluorescence.
SGP-TMR affinity to the Fbs in low salt volatile buffer was analyzed by a pull-down assay using SNAP Capture Pull-Down resin conjugated with equal amounts of WT, GYR or PPRYR Fbs proteins (FIG. 10B). […]

Row | Binder | Kd [1] | Kd [2] | fold increased affinity, against WT Fbs [3]
1 | B1 | 1430 nM | 3000 nM | –
2 | B2 | – | – | 3 fold
3 | B3 | – | – | 2 fold
